# Source: US20230001009A1, “NANOPARTICLE COMPOSITIONS AND METHODS OF USE” (The Trustees of the University of Pennsylvania, priority 2019, published 2023)
# Assays:
# [1] = system: neutrophils in LPS-inflamed lungs; conditions: mouse, in vivo, iv
# Protocol: Mice received IV LPS as a model of sepsis/ARDS and were injected five hours later with liposomes (approx. 5 mg/kg). Lung uptake provides a measure of tropism to marginated neutrophils. D5=5 DBCO per protein (IgG) on the tag. D5=5 DBCO per IgG on the tag. D20=20 per IgG on the tag. 25% chol=25% (moles cholesterol/total moles of lipid) of the lipids in liposomes was cholesterol. 25% cholesterol=25% (moles cholesterol/total moles of lipid) of the lipids in liposomes was cholesterol.
# Radiolabeled clone 1A8 anti-Ly6G antibody was administered to determine the location and concentration of neutrophils in naïve mice and mice exposed to intravenous (IV) lipopolysaccharides (LPS) (FIG. 1A).
# Previous work has traced the neutrophil response to bacteria in the lungs, determining that pulmonary neutrophils pursue and engulf active bacteria following either intravenous infection or infection of the airspace in the lungs. We injected heat-inactivated, oxidized, and fixed E. coli in naïve and IV-LPS-injured mice.
# Neither nanoparticle was functionalized with antibodies or other affinity tags. The protein component of each particle was labeled with ^125I for tracing in biodistributions assessed 30 minutes after IV administration of nanoparticles.
# Variants of LDNG structure, crosslinked protein NP structure, and NP structure based on charged protein interactions were traced in naïve control and IV-LPS-injured mice. As examples of highly crystalline protein-based NPs based on site-specific protein interactions (rather than site-indiscriminate interactions leading to crosslinker, gelation, or charge-based protein NPs), we also traced viruses in naïve and LPS-treated mice. Adding in liposomes and polystyrene NPs as example nanostructures not based on protein, we undertook a study to evaluate how aspects of NP structure including size, composition, surface chemistry, and crystallinity impact NP affinity for LPS-injured lungs.
# ex vivo human lungs = system: ex vivo human lungs
# From the text: Finally, fluorescent or ^125I-labeled LDNGs were infused via arterial catheter into ex vivo human lungs excluded from organ donation due to conditions (including edema and injury) resembling those found in ARDS patients. Immediately prior to LDNG administration, tissue dye was infused via the same catheter to stain regions of the lungs directly perfused by the chosen branch of the pulmonary artery (FIG. 7C). After infusion of LDNGs, phosphate buffered saline infusion rinsed away unbound particles. Perfused regions of the lungs were dissected and divided into ˜1 g segments, divided into regions deemed to have high, medium, or low levels of staining with tissue dye. For lungs receiving fluorescent LDNGs, well-perfused and poorly-perfused regions were selected for sectioning and fluorescent imaging. Fluorescent signal from LDNGs was clearly detectable in sections of well-perfused tissue, but not poorly-perfused tissue (FIG. 7D). In experiments with ^125I-labeled LDNGs, ^131I-labeled ferritin was concurrently infused (i.e. a mix of ferritin and LDNGs was infused) as an internal control particle shown to have no affinity for injured mouse lungs. For LDNGs and ferritin infused into the same lungs via the same branch of the pulmonary artery, LDNGs retained in the lungs at 52.15% initial dose and ferritin retained at 9.27% initial dose (FIG. 7E). […]
Substance,"Lung uptake, percent of initial dose [1]",LPS:naïve lung uptake ratio [1],Retained in the lungs (ex vivo human lungs)
bovine albumin: isolated radiolabeled protein,1.38 % initial dose,–,–
ferritin,0.68 % initial dose,1.15,9.27 % initial dose
lysozyme: isolated radiolabeled protein,1.34 % initial dose,–,–
transferrin: isolated radiolabeled protein,1.45 % initial dose,–,–
